The labels stand for the following.
B3: GST–tagged Rpb1_(1168–1302) (domain or fragment)
chain: not shown
B4: untagged recombinant Rpb1_(1168–1302) (domain or fragment)
chain: not shown

Assay in all cases: pull-down
Experiment [1] concerns the target B3.
Experiment [2] concerns the target B4.
The target of the next experiment is RECQL5_(1–620) (human, UniProt O94762 1-620).
The target in a further experiment is GST–fused RECQL5_(1–620) (human, UniProt O94762 1-620).

B1: RECQL5 IRI domain (residues 490–620) (domain or fragment)
chain: GSGDEGRDEAHKREWNLFYQKQMQLRKGKDPKIEEFVPPDENCPLKEASSRRIPRLTVKAREHCLRLLEEALSSNRQSTRTADEADLRAKAVELEHETFRNAKVANLYKASVLKKVADIHRASKDGQPYDM
Regarding B1, the binding result in experiment [1] was “binds”.

B2: GST–RECQL5_(490–620) (domain or fragment)
chain: GSGDEGRDEAHKREWNLFYQKQMQLRKGKDPKIEEFVPPDENCPLKEASSRRIPRLTVKAREHCLRLLEEALSSNRQSTRTADEADLRAKAVELEHETFRNAKVANLYKASVLKKVADIHRASKDGQPYDM
B2: the binding result in experiment [2] is listed as “binds”.
Consider B3, for which the binding result with RECQL5_(1–620) is listed as “binds”.
B4: the binding result with GST–fused RECQL5_(1–620) was “binds”.

The record behind these values is publication PMC3702667 (Nature structural & molecular biology, 2013).
